Experimental data reported in patent US20140248666A1 (Amgen, published 2014).

What was measured:
[1] = target: T1, human sclerostin tryptic peptide T20.6 (human); assay: Biacore human sclerostin peptide epitope competition binding assay: 2 nM Mab preincubated with 20 nM peptide in solution, then injected over immobilised human sclerostin; loss of Ru signal means the Mab bound the peptide
T1 chain 1: DVSEYSCRELHFTR
T1 chain 2: SAKPVTELVCSGQCGPAR
T1 chain 3: WWRPSGPDFRCIPDRYR
T1 chain 4: LVASCKCKRLTR
Experimental: (§1) Immobilization of mature form human sclerostin to a BIAcore sensor chip (CM5) surface was performed according to manufacturer's instructions. Briefly, carboxyl groups on the sensor chip surfaces were activated by injecting 60 μL of a mixture containing 0.2 M N-ethyl-N′-(dimethylaminopropyl) carbodiimide (EDC) and 0.05 M N-hydroxysuccinimide (NHS). Human sclerostin was diluted in 10 mM sodium acetate, pH 4.0 at a concentration of 20 μg/mL followed by injecting over the activated CM5 surface. Excess reactive groups on the surfaces were deactivated by injecting 60 μL of 1M ethanolamine. Final immobilized levels were ˜5000 resonance units (RU) for the human sclerostin surface. A blank, mock-coupled reference surface was also prepared on the sensor chips.

[2] = target: T2, human sclerostin tryptic peptide T19.2 (Interchain disulfide C2-C6 (Cys71-Cys125 of SEQ ID NO:1): chain 1 pos 7 to chain 2 pos 5.); assay: Biacore human sclerostin peptide epitope competition binding assay: 2 nM Mab preincubated with 20 nM peptide in solution, then injected over immobilised human sclerostin; unchanged Ru signal means the Mab did not bind the peptide
T2 construct: Two peptides linked by the C2-C6 disulfide bond
T2 peptide 1: YVTDGPCR
T2 peptide 2: VQLLCPGGEAPR
Experimental: as §1

[3] = target: T3, human sclerostin AspN peptide AspN18.6 (FIG. 12 labels it '(Glycopeptide)'. The glycan site is not stated. The only N-X-T sequon is NKT, so the glycosylated residue is probably Asn at chain 1 pos 22, written N.); assay: as above
T3 peptide: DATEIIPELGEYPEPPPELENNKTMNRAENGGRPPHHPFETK
Experimental: as §1

[4] = target: T4, human sclerostin, mature form (signal peptide removed) (human, UniProt Q9BQB4 24-213); assay: Biacore human sclerostin peptide epitope competition binding assay: 2 nM Mab injected over human sclerostin immobilised on a CM5 chip, alone or after preincubation with 20 nM soluble human sclerostin
T4 construct: 190 amino acid glycoprotein with four disulfide bonds (C1-C5, C2-C6, C3-C7, C4-C8); also called SOST; recombinant human sclerostin
T4 sequence: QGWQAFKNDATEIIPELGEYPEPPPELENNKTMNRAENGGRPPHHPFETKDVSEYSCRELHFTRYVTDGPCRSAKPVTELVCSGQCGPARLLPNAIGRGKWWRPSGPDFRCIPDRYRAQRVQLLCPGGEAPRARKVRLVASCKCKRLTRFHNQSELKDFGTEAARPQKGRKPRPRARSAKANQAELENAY
Experimental: as §1

[5] = target: T1, human sclerostin tryptic peptide T20.6; assay: Biacore human sclerostin peptide epitope competition binding assay: 2 nM Mab preincubated with 20 nM peptide in solution, then injected over immobilised human sclerostin; unchanged Ru signal means the Mab did not bind the peptide
Experimental: as §1

[6] = target: T4, human sclerostin, mature form (signal …); assay: Biacore cross-blocking on human sclerostin; mixture with competitor Ab-3, mean RU against the sum of each alone
Experimental: (§2) Human sclerostin was coupled to a CM5 Biacore chip using standard amine coupling chemistry to generate a sclerostin coated surface. 300 resonance units of sclerostin were coupled to the surface.
(§3) The antibodies to be tested were diluted to a concentration of 200 ug/ml in HBS-EP buffer (being 10 mM HEPES pH 7.4, 150 mM NaCl, 3 mM EDTA, 0.005% (v/v) Surfactant P20) and then mixed in a one to one molar ratio (on a binding site basis) to generate the test mixture. This test mixture thus contained each antibody at a concentration of 100 ug/ml (1.3 um on a binding site basis). Separate solutions containing each of the antibodies in the test mix alone were also prepared. These solutions contained the individual antibodies in HBS-EP buffer at a concentration of 100 ug/ml (1.3 um on a binding site basis).
(§4) 20 μL of the test mixture was passed over the sclerostin-coated chip at a flow rate of 10 μL/min and the amount of binding recorded. The chip was then treated with two 60 second pulses of 30 mM HCl to remove all of the bound antibody. A solution containing only one of the antibodies of the test mixture (at 1.3 μM in the same buffer as the test mixture on a binding site basis) was then passed over the chip in the same manner as the test mixture and the amount of binding recorded. The chip was again treated to remove all of the bound antibody and finally a solution containing the other antibody from the test mixture alone (at 1.3 μM in the same buffer as the test mixture on a binding site basis) was passed over the chip and the amount of binding recorded.

[7] = target: T4, human sclerostin, mature form (signal …); assay: Biacore cross-blocking, human sclerostin on CM5 chip; mixed with competitor Ab-19, each 1.3 uM binding sites
Experimental: as §2, §3, §4

[8] = target: T4, human sclerostin, mature form (signal …); assay: Biacore cross-blocking, human sclerostin on CM5 chip; mixed with competitor Ab-13, each 1.3 uM binding sites
Experimental: as §2, §3, §4

[9] = target: T4, human sclerostin, mature form (signal …); assay: Biacore cross-blocking on human sclerostin; mixture with competitor Ab-19, mean RU against the sum of each alone
Experimental: as §2, §3, §4

[10] = target: T4, human sclerostin, mature form (signal …); assay: Biacore cross-blocking, human sclerostin on CM5 chip; mixed with competitor Ab-3, each 1.3 uM binding sites
Experimental: as §2, §4
(§5) The table below show the results from cross-blocking assays on a range of different antibodies. The values in each square of the table represent the amount of binding (in RU) seen when the antibodies (at 1.3 μM on a binding site basis) or buffer indicated in the top row of the table were mixed with the antibodies (at 1.3 uM on a binding site basis) or buffer indicated in the first column of the table.

[11] = target: T4, human sclerostin, mature form (signal …); assay: Biacore cross-blocking, human sclerostin on CM5 chip; mixed with competitor Ab-4, each 1.3 uM binding sites
Experimental: as §2, §4, §5

B1: Antibody D (antibody, mouse IgG1, kappa, V domains shown)
VH: EVQLQQSGPELVTPGASVKISCKASGYTFTDHYMSWVKQSHGKSLEWIGDINPYSGETTYNQKFKGTATLTVDKSSSIAYMEIRGLTSEDSAVYYCARDDYDASPFAYWGQGTLVTVSA
VL: DVQMIQSPSSLSASLGDIVTMTCQASQGTSINLNWFQQKPGKAPKLLIYGSSNLEDGVPSRFSGSRYGTDFTLTISSLEDEDLATYFCLQHSYLPYTFGGGTKLEIKR
notes: Mouse antibody; mature chains; also called Ab-D; Mab-D
binding result [1]: binds
binding result [2]: no binding (tested: 20 nM)
binding result [3]: no binding (tested: 20 nM)
binding result [4]: binds

B2: Antibody B (antibody, mouse IgG1, kappa, V domains shown)
VH: QVTLKESGPGILQPSQTLSLTCSFSGFSLSTSGMGVGWIRHPSGKNLEWLAHIWWDDVKRYNPVLKSRLTISKDTSNSQVFLKIANVDTADTATYYCARIEDFDYDEEYYAMDYWGQGTSVIVSS
VL: QIVLTQSPTIVSASPGEKVTLICSASSSVSFVDWFQQKPGTSPKRWIYRTSNLGFGVPARFSGGGSGTSHSLTISRMEAEDAATYYCQQRSTYPPTFGAGTKLELKR
notes: Mouse antibody; mature chains; also called Ab-B; Mab-B
binding result [2]: no binding (tested: 20 nM)
binding result [5]: no binding (tested: 20 nM)
binding result [3]: no binding (tested: 20 nM)
binding result [4]: binds

B3: Antibody C (antibody, mouse IgG1, kappa, V domains shown)
VH: EVQLQQSGPELVKPGTSVKMSCKASGYTFTDCYMNWVKQSHGKSLEWIGDINPFNGGTTYNQKFKGKATLTVDKSSSTAYMQLNSLTSDDSAVYYCARSHYYFDGRVPWDAMDYWGQGTSVTVSS
VL: DIVLTQSPASLTVSLGLRATISCKASQSVDYDGDSYMNWYQQKPGQPPKLLIYAASNLESGIPARFSGNGSGTDFTLNIHPVEEEDAVTYYCQQSNEDPWTFGGGTKLEIKR
notes: Mouse antibody; mature chains; also called Ab-C; Mab-C
binding result [1]: binds
binding result [2]: no binding (tested: 20 nM)
binding result [3]: no binding (tested: 20 nM)
binding result [4]: binds

B4: Antibody A (antibody, mouse IgG1, kappa, V domains shown)
VH: QSLEESGGRLVTPGTPLTLTCTASGFSLSSYWMNWVRQAPGEGLEWIGTIDSGGRTDYASWAKGRFTISRTSTTMDLKMTSLTTGDTARYFCARNWNLWGQGTLVTVSS
VL: AQVLTQTPASVSAAVGGTVTINCQSSQSVYDNNWLAWFQQKPGQPPKLLIYDASDLASGVPSRFSGSGSGTQFTLTISGVQCADAATYYCQGAYNDVIYAFGGGTEVVVKR
notes: Rabbit-mouse chimeric antibody; mature chains (signal peptides cleaved off); also called Ab-A; Mab-A
percentage of the theoretical binding [6]: 93.5%
amount of binding (RU) [7]: 868 RU
amount of binding (RU) [8]: 1080 RU
percentage of the theoretical binding [9]: 65%
amount of binding (RU) [10]: 946 RU
binding result [2]: no binding (tested: 20 nM)
binding result [5]: no binding (tested: 20 nM)
binding result [3]: no binding (tested: 20 nM)
amount of binding (RU) [11]: 833 RU
